The values that follow come from US20140328858, “LIN28-MEDIATED CONTROL OF LET-7 BIOGENESIS” (Children's Medical Center Corporation, published 2014).

In series [1] the test system is immunopurified Flag-Lin28.
A further series addresses T1, Lin28A (Homo sapiens, UniProt Q9H9Z2 Q9H9Z2:2-209).
T1 sequence: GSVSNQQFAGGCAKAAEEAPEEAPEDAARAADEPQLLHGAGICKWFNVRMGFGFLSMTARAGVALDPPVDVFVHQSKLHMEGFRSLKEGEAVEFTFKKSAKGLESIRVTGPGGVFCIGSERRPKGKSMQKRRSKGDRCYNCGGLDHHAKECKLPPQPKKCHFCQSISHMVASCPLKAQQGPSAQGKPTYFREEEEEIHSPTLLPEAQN
Put plainly: EMSA; 50 mM Tris pH 7.5, 100 mM NaCl, 10 mM bME, RT, 0.5 nM RNA; Kd fitted (Hill) but value not in text. The following applies: tags: 6xHis N-terminal, E. coli (pET21); label: 5'-end label (EMSA); hairpin. The procedure:
(§1) EMSA was performed with pre-let-7g to analyze the relative binding affinities of the two recombinant proteins. Lin28A and Lin28B have apparent Kds of approximately 0.6 nM and 0.5 nM, respectively (FIG. 7B). Both these estimated Kds are much lower than a previously reported for recombinant mouse Lin28A. This difference is likely due to the omission here of nonspecific yeast tRNA competitor used previously in the binding buffer. Piskounova et al., 2008. […] Collectively, these assays reveal that both Lin28 proteins can directly bind to let-7 precursors with high-affinity in vitro.
(§2) Transformed BL21-CodonPlus® Competent bacteria (Stratagene) were grown to an OD600 nm of 0.4-0.6. Expression was induced 100 μM IPTG for 2-3 hours. Cell pellets were resuspended in cold lysis buffer [20 mM imidazole pH 8.0 in PBS, 0.1% Phenylmethyl sulfonyl fluoride (PMSF)] and sonicated. Cleared lysates were incubated with Ni-NTA beads and after 90 min incubation at 4° C. the beads were washed with 80-column-vol. wash buffer [10 mM Tris (pH 7.8), 50 mM imidazole pH 8.0, 500 mM NaCl, 0.1% PMSF). […] Band intensities of scanned gels were quantified using ImageJ software and used to calculate percentage of probe bound. […]
For orientation: In EMSA bound probe runs differently from free probe, usually more slowly.

For a further series, the target named is T2, Lin28B (Homo sapiens, UniProt Q6ZN17 Q6ZN17:2-250).
T2 sequence: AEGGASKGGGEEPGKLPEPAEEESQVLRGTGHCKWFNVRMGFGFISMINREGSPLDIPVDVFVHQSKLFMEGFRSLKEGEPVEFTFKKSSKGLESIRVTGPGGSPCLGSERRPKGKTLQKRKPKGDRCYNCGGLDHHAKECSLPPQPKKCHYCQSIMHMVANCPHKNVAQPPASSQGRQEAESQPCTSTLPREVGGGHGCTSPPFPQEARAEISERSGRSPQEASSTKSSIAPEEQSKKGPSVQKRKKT
The series is described as above. The following applies: tags: 6xHis N-terminal, E. coli (pET21); label: 5'-end label (EMSA); hairpin. On the procedure:
as §1, §2

Series [2] concerns the target immunopurified Flag-Lin28. This is another data set of the same source.

Where two headings read alike, the source gives them in different places.

As to “mZcchc11 ΔC2H2 (N-terminal truncation lacking the C2H2 zinc finger)”, the “in vitro uridylation of synthetic pre-let-7 (incorporation of radiolabeled UTP)” value in series [1] is recorded as “Loss of the N-terminal C2H2 domain still allowed for basal activity, but this mutant could no longer support Lin28-enhanced uridylation against pre-let-7”.

B1: pre-let-7g (ssRNA)
RNA: GAGGUAGUAGUUUGUACAGUUUGAGGGUCUAUGAUACCACCCGGUACAGGAGAUAACUGUACAGGCCACUGCCUUGC
For B1, the binding result with Lin28A and in the series with Lin28B was “binds” throughout.

B2: mZcchc11 C326/329A (full-length) (protein)
chain: MEEPKTSKNENHEPKKNIICEESKAVKIISNQTLKPRNDKSEIGTSSLNRNSSKKTKQNDICIEKTEAKSCKVNAASVPGPKDLGLVHRDQSHCKMKKLPNSPMKAQKGSSQTKLEKTPSLQTKAEKVPKSPNLPVKAEKAPCTTAEATTEKALNSQRKEENTPTSQMKLQKTPRSPLEPENVPSLLLKENVKQTESQQTGKKLTSSFVSMDKRKSEALQGEKSALENSSLSQKQQTQTDNIADSDDSASGIEDTADDLSKMKSEESNKENSSEMDYLENATVIDESALTPEQRLGLKQAEERLERDHIFRLEKRSPEYTNCRYLAKLALIHIENIQGAHKHIKEKRHKKNILEKQEESELRSLPSPSSAHLAALSVAVVELAKEQGITDDDLRIRQDIVEEMSKVIMTFLPECSLRLYGSSLTKFALKSSDVNIDIKFPPKMNHPDLLIQVLGILKKSALYIDVESDFHAKVPVVVCKDRKSALLCRVSAGNDMACLTTDLLAALGKVEPVFTPLVLAFRYWAKLCYIDSQTDGGIPSYCFALMVMFFLQQRKPPLLPCLLGSWIEGFDPKRMDDFQLKGIVEEKFVKWEYNSSSATEKNLIADENKAKADEPKDDTKKTETDNQSNAAKAKHGKSPLTLEAPNQVPLGQLWLELLKFYTLDFALEEYVICVRIQDILTRENKNWPKRRIAIEDPFSVKRNVARSLNSQLVYEYVVERFRAAYRYFACPQKKGGNKSTMDPKKKEKGKLSSKKPVKSDCSATNCCILGESAEKIHMERGQPAKHDETEFTSQRCIVDNDSLLVNELGLANHGQDSSSLSTASGGSDLKQKSAEKQGDLTPSETSLKKELSQCICIGTPDGAESAGTDCRSNLEMDSSHQIVCNNVSATSCNCKATEVTSDLVDEDNLPSQELYYVFDKFILTSGKPPTIVCSICKKDGHSKNDCPEDFRKIDLKPLPPMTNRFREILDLVCKRCFDELSPPCSEQHNREQILIGLEKFIQKEYDEKARLCLFGSSKNGFGFRDSDLDICMTLEGHENAEKLNCKEIIENLAKILKRHPGLRNILPITTAKVPIVKFEHRRSGLEGDISLYNTLAQHNTRMLATYAAIDPRVQYLGYTMKVFAKRCDIGDASRGSLSSYAYILMVLYFLQQRKPPVIPVLQEIFDGKQIPQRMVDGWNAFFFDKTEELKKRLPSLGKNTESLGELWLGLLRFYTEEFDFKEYVISIRQKKLLTTFEKQWTSKCIAIEDPFDLNHNLGAGVSRKMTNFIMKAFINGRKLFGTPFYPLIGREAEYFFDSRVLTDGELAPNDRCCRVCGKIGHYMKDCPKRKRLKKKDSEEEKEGNEEEKDSRDLLDSRDLRCFICGDAGHVRRECPEVKMARQRNSSVAAAQLVRNLVNAQQVAGSAQQQSDQSIRTRQSSECSDSPSYSPQPQPFPQNSPQPSALPPPPSQPGSQPKLGPPQQGGQPPHQVQMPLYNFPQSPPAHYSPMHSMGLLPMHPLQIPAPSWPIHGPMLHSAPGSTPSNIGLNDPSIIFAQPAARPMAIPSPSHDGHWPRTVAPNSLVNNGAVGNSEPRFRGLNPPIPWEHAPRHFPLVPASWPYGLHQNFMHQGNPRFQPKPFYAQADRCATRRCRERCPHPPRGNVSE
Take B2: the “in vitro uridylation of synthetic pre-let-7 (incorporation of radiolabeled UTP)” value in series [2] is “this mutant exhibited only basal uridylation activity, as the addition of Lin28 had no impact on its catalysis in vitro”.
